Laboratory results as given in patent US20230192861A1.

How the values were obtained:
[1] = target: human B7-H3 expressed on the surface of human cancer cell lines (human) (UniProt Q5ZPR3); assay: FACS on OVCAR-3 cells, 10 ug/ml
[2] = target: human B7-H3 expressed on the surface of human cancer cell lines (human) (UniProt Q5ZPR3); assay: FACS on MDA-MB-231 cells, 10 ug/ml
[3] = target: human B7-H3 expressed on the surface of human cancer cell lines (human) (UniProt Q5ZPR3); assay: FACS on DLD-1 cells, 10 ug/ml
[4] = target: human B7-H3 expressed on the surface of human cancer cell lines (human) (UniProt Q5ZPR3); assay: FACS on JeKo-1 cells, 10 ug/ml
[5] = target: human B7-H3 expressed on the surface of human cancer cell lines (human) (UniProt Q5ZPR3); assay: FACS on HCC1954 cells, 10 ug/ml
[6] = target: human B7-H3 expressed on the surface of human cancer cell lines (human) (UniProt Q5ZPR3); assay: FACS on A2780 cells, 10 ug/ml
[7] = target: human B7-H3 expressed on the surface of human cancer cell lines (human) (UniProt Q5ZPR3); assay: FACS on HT29 cells, 10 ug/ml
[8] = target: human B7-H3 expressed on the surface of human cancer cell lines (human) (UniProt Q5ZPR3); assay: FACS on Panc-1 cells, 10 ug/ml
[9] = target: human B7-H3 expressed on the surface of human cancer cell lines (human) (UniProt Q5ZPR3); assay: FACS on Calu-6 cells, 10 ug/ml
[10] = target: human B7-H3 expressed on the surface of human cancer cell lines (human) (UniProt Q5ZPR3); assay: FACS on A-498 cells, 10 ug/ml
[11] = target: human B7-H3 expressed on the surface of human cancer cell lines (human) (UniProt Q5ZPR3); assay: FACS on HCT116 cells, 10 ug/ml
[12] = target: human B7-H3 expressed on the surface of human cancer cell lines (human) (UniProt Q5ZPR3); assay: FACS on Hela cells, 10 ug/ml
[13] = target: human B7-H3 expressed on the surface of human cancer cell lines (human) (UniProt Q5ZPR3); assay: FACS on SKOV-3 cells, 10 ug/ml
[14] = target: human B7-H3 expressed on the surface of human cancer cell lines (human) (UniProt Q5ZPR3); assay: FACS on 786-0 cells, 10 ug/ml
[15] = target: human B7-H3 expressed on the surface of human cancer cell lines (human) (UniProt Q5ZPR3); assay: FACS on NCI-N87 cells, 10 ug/ml
[16] = target: human B7-H3 expressed on the surface of human cancer cell lines (human) (UniProt Q5ZPR3); assay: FACS on MDA-MB-468 cells, 10 ug/ml
[17] = target: human B7-H3 expressed on the surface of human cancer cell lines (human) (UniProt Q5ZPR3); assay: FACS on HCC1187 cells, 10 ug/ml
[18] = target: human B7-H3 expressed on the surface of human cancer cell lines (human) (UniProt Q5ZPR3); assay: FACS on MCF-7 cells, 10 ug/ml

human B7-H3 expressed on the surface of human cancer cell lines (human), sequence (Q5ZPR3 29-534): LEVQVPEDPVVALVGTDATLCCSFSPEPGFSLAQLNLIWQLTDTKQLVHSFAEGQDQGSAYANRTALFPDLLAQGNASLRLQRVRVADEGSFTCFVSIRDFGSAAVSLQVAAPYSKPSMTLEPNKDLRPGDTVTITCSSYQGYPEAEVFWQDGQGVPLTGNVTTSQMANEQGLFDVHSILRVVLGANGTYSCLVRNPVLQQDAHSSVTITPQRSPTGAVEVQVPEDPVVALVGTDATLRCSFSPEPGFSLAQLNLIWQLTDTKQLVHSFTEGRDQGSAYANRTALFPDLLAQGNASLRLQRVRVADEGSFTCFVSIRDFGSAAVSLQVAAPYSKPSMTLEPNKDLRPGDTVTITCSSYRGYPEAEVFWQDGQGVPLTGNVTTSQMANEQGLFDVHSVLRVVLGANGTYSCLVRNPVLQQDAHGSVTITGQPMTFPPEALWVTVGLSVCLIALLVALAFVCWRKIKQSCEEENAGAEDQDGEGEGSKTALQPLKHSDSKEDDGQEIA

MFI Ratio [1]: 13.7
MFI Ratio [2]: 5.4
MFI Ratio [3]: 10.7
MFI Ratio [4]: 2.9
MFI Ratio [5]: 14
MFI Ratio [6]: 13.1
MFI Ratio [7]: 8.9
MFI Ratio [8]: 9
MFI Ratio [9]: 23.2
MFI Ratio [10]: 24
MFI Ratio [11]: 5.9
MFI Ratio [12]: 23.5
MFI Ratio [13]: 11.9
MFI Ratio [14]: 20
MFI Ratio [15]: 12.8
MFI Ratio [16]: 8.6
MFI Ratio [17]: 14.9
MFI Ratio [18]: 78
B1: 84D (comparison anti-B7-H3 antibody, Enoblituzumab variable regions) (antibody, part only; not given: constant regions, V domains shown, not shown: another chain or arm of the molecule)
VH: EVQLVESGGGLVQPGGSLRLSCAASGFTFSSFGMHWVRQAPGKGLEWVAYISSDSSAIYYADTVKGRFTISRDNAKNSLYLQMNSLRDEDTAVYYCGRGRENIYYGSRLDYWGQGTTVTVSS
VL: DIQLTQSPSFLSASVGDRVTITCKASQNVDTNVAWYQQKPGKAPKALIYSASYRYSGVPSRFSGSGSGTDFTLTISSLQPEDFATYYCQQYNNYPFTFGQGTKLEIK
